Tests used:
[1] = target: Halo-FtsZ (FtsZ fused with HaloTag) (Caulobacter crescentus); assay: single molecule tracking in live cells
[2] = target: Halo-FtsZ^D216A (Caulobacter crescentus); assay: single molecule tracking in live cells

Substance	monomer lifetime [1]	monomer lifetime [2]
Halo-FtsZ (FtsZ fused with HaloTag) (natural protein)	12.2 s	–
Halo-FtsZ^D216A (natural protein)	–	16.2 s

From article doi:10.1101/2023.09.08.556907
